Tested on: LexA (Escherichia coli)
Test: EMSA

YNN1-LexO naked DNA
Kd: < 5 nM
